Source: the supplement of paper PMC9732359
± gives the uncertainty stated by the source.

Experiment: protein stability index of a GFP-peptide fusion (yeast GPS) (PSI 1-4); higher = more stable; sorted into four equal gates, so the index is relative within each strain
Outline: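 For each peptide, the protein stability index sums the read frequency in every gate after multiplying it by the gate number. Read frequencies came from plasmids that were PCR-amplified from each gate and Illumina-sequenced, with reads assigned to strains by barcodes. The gates were four equal bins of GFP/Cherry fluorescence ratio applied to mid-log yeast in leucine-free medium carrying a pooled library of tiled 17-residue yeast protein peptides fused downstream of GFP on a Cherry-expressing plasmid.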

Sequence | protein stability index (doa10∆) | protein stability index (pdr5∆) | protein stability index (ubr1∆) | protein stability index (san1∆)
LPSWSLGKWYSKEDYET [ARP7] | 1.62 ± 0.17 | 1.12 ± 0.14 | 1.09 ± 0.11 | –
TYGFSILDIVINNPVNL [FAS1] | 2.07 ± 0.087 | 2.37 ± 0.075 | 3.02 ± 0.074 | 2.53 ± 0.092
GHIAKLMATEYQDIEGG [RPB2] | 3.45 ± 0.29 | – | 3.18 ± 0.13 | –
DLWNNFGNIMDNLLEMS [RRP6] | 3.42 ± 0.094 | 2.88 ± 0.076 | 2.95 ± 0.11 | 3.21 ± 0.058
TLFCCLLRSRLATRRVL [RPO21] | 1.31 ± 0.068 | 1.22 ± 0.06 | 1.2 ± 0.05 | 1.15 ± 0.15
PQNTTATTGGLFGSKPQ [YGR119C/NUP57] | 3.33 ± 0.1 | 3.36 ± 0.1 | 3.53 ± 0.17 | 3.32 ± 0.13
IEDEDEPFNAGIKYHAT [SMC1] | 3.04 ± 0.083 | 2.82 ± 0.1 | 2.89 ± 0.05 | 2.9 ± 0.062
PGAKPLQVGDVVSTTAV [FAS1] | 2.51 ± 0.075 | 2.42 ± 0.086 | 2.66 ± 0.065 | 2.48 ± 0.077
PLRENTNVLDVKDKEED [YDL116W/NUP84] | 3.07 ± 0.082 | 3.11 ± 0.1 | 2.99 ± 0.11 | 3.25 ± 0.065
AHRIMLTNILRMMGCVK [FAS2] | 1.86 ± 0.061 | 1.87 ± 0.06 | 2.41 ± 0.19 | 1.9 ± 0.12
IKDLQRAINKVLCTRLR [SIR2] | 1.78 ± 0.063 | 1.33 ± 0.06 | 1.54 ± 0.045 | 1.18 ± 0.11
LYSGLIIDEIITQMRVN [RPC82] | 2.12 ± 0.078 | 2.36 ± 0.094 | 1.58 ± 0.068 | 2.71 ± 0.2
NLDAAAAGTSQARTATL [RPC10] | 2.65 ± 0.17 | 3.15 ± 0.15 | 2.86 ± 0.096 | 2.73 ± 0.1
VSFRTHNSHLSLNYKFT [SRP21] | 3.01 ± 0.048 | 2.99 ± 0.046 | 3.15 ± 0.039 | 3 ± 0.051
GTNAMLPSPESLKTKLN [SNF5] | 1.88 ± 0.037 | 1.97 ± 0.035 | 2.12 ± 0.034 | 2.19 ± 0.046
SLKKVDEIKAQRKEIKD [SMC4] | – | 2.94 ± 0.18 | 3.4 ± 0.25 | 3.29 ± 0.16
ISICMILCGIQEYLNPV [YDL116W/NUP84] | 1.97 ± 0.1 | 1.61 ± 0.11 | 1.87 ± 0.14 | –
YDEDPYGFEDESAPITA [RPB2] | 3.05 ± 0.071 | 3.18 ± 0.054 | 3.17 ± 0.065 | 3.24 ± 0.048
TWNGSPFDNSTEEKCKN [YJL039C/NUP192] | 3.1 ± 0.084 | 3.38 ± 0.081 | 3.33 ± 0.073 | 3.26 ± 0.066
DAAAEEEKEEEAAEESD [RPP1B] | 3.19 ± 0.13 | 3.25 ± 0.13 | 3.29 ± 0.073 | 3.04 ± 0.1

Sequence | protein stability index (doa10∆) | protein stability index (pdr5∆) | protein stability index (ubr1∆) | protein stability index (san1∆)
SWEEGTRQSSRNFDTHE [MCD1] | 3.26 ± 0.12 | 3.59 ± 0.13 | 3.38 ± 0.15 | 3.31 ± 0.1
IQSKAVEQGYEDAFNFW [YCG1] | 3.37 ± 0.13 | 3.33 ± 0.17 | – | 3.57 ± 0.12
YLCFILSTRAGGLGLNL [SNF2] | 2.32 ± 0.08 | 2.04 ± 0.095 | 2.6 ± 0.11 | 2.19 ± 0.12
TKTILSGTDGSTIGILL [SRP72] | 3 ± 0.064 | 2.81 ± 0.062 | 3.01 ± 0.065 | 3.06 ± 0.084
SLLSLVGHLSILPQQSK [ECM29] | 2.21 ± 0.048 | 2 ± 0.052 | 1.64 ± 0.027 | 1.94 ± 0.058
MVKNVKPSSPPDVKSLV [SIR4] | 3.23 ± 0.11 | 3.12 ± 0.063 | 3.13 ± 0.068 | 2.97 ± 0.085
SRQKSGLFDSFTNGVLA [YML031W/NDC1] | 1.68 ± 0.064 | 1.5 ± 0.065 | 1.49 ± 0.06 | 1.92 ± 0.12
VKVVDAGNKVGQSEASL [RPP0] | – | 3.58 ± 0.22 | – | –
YAKEDAFSYPRMYEEAS [RPN2] | 2.66 ± 0.091 | 1.35 ± 0.082 | 1.43 ± 0.058 | 1.27 ± 0.11
SENEDTKDLLSKSPSEW [CSE2] | 3.21 ± 0.067 | 3.11 ± 0.067 | 3.19 ± 0.046 | 3.15 ± 0.051
GLSLAGLAPDARVLSNY [PRE5] | 1.23 ± 0.098 | 1.58 ± 0.1 | 1.13 ± 0.1 | 1.27 ± 0.24
TTTTTTTNNNNTNNNNT [SWI1] | 3.18 ± 0.034 | 3.18 ± 0.05 | 3.465 ± 0.024 | 3.303 ± 0.021
ENDEEDIYMHDVNSASK [RRP4] | 3.47 ± 0.098 | 3.47 ± 0.095 | 3.31 ± 0.059 | 3.01 ± 0.095
RCKIYFFYLRISKKLQF [PCI8] | 1.29 ± 0.06 | 1.31 ± 0.046 | 1.35 ± 0.052 | 1.19 ± 0.093
EDDDIRSRMLPTITLDD [SNF5] | 2.46 ± 0.15 | 3.07 ± 0.18 | 3.44 ± 0.14 | –
FEKKLSIIKAKLPLLNE [YML103C/NUP188] | 2.34 ± 0.095 | 1.98 ± 0.13 | 1.69 ± 0.068 | 1.85 ± 0.23
LYQTYHVLVGDLIKFSA [FAS1] | 2.2 ± 0.05 | 2.43 ± 0.052 | 2.31 ± 0.035 | 2.39 ± 0.044
GIVSVSDPQMKVFDTLT [RPN1] | 2.81 ± 0.16 | 2.93 ± 0.12 | 2.82 ± 0.13 | 2.87 ± 0.16
STSSGKVSYAVKKPQKS [SNM1] | 2.04 ± 0.13 | 2.76 ± 0.1 | 3.02 ± 0.16 | 2.01 ± 0.17
